From paper PMC5404920

Target: Mg-ATP actin (15% Alexa 488-labeled), assembled into actin filaments (F-actin) (not stated (chicken or rabbit skeletal muscle)) (UniProt P68135)
Assay: TIRF microscopy; two-color TIRFM of 1.5 μM Mg-ATP actin (15% Alexa 488) assembling with Cy5-labeled Cdc8 at 1 μM and above; 10 mM imidazole pH 7.0, 50 mM KCl, 1 mM MgCl2, 1 mM EGTA, 0.5% methylcellulose, room temperature

| kon per unit filament length of the first observed Cdc8 binding (random-binding model fitted to the TIRFM data) | percent of F-actin coated at 2 μM Cdc8 and higher | percent of actin filament sites coated at 1.25 μM Cdc8 | percent of actin filaments associated with tropomyosin | percent of total actin filament coverage at 1 μM Cdc8 | spreading rate of Cdc8 toward the barbed end (Cdc8 molecules sec^-1 μM^-1) | spreading rate of Cdc8 toward the pointed end (Cdc8 molecules sec^-1 μM^-1) | Substance |
| --- | --- | --- | --- | --- | --- | --- | --- |
| 4e-06 s⁻¹ nm⁻¹ | 98% | 40% | 100% | 2% | 3.2 | 2.4 | tropomyosin AlaSer-Cdc8 I76C, Cy5-labeled (natural protein) |
|  |  |  | 100% |  |  |  | tropomyosin AlaSer-Cdc8 D142C, Cy5-labeled (natural protein) |
